Assay results: the DeepSol protein solubility set

Assay: soluble on expression in E. coli; label from the status in PepcDB or PDB records

Soluble on expression in E. coli, not soluble:
MGSDKIHHHHHHMPEKKIDGRRKAAVLLVALGPEKAAQVMKHLDEETVEQLVVEIANIGRVTPEEKKQVLEEFLSLAKAKEMISEGGIEYAKKVLEKAFGPERARKIIERLTSSLQVKPFSFVRDTDPVQLVNFLQSEHPQTIAVVLSYLDPPVAAQILGALPEELQTEVLKRIALLERTSPEVVKEIERNLEKKISGFVSRTFSKVGGIDTAAEIMNNLDRTTEKKIMDKLVQENPELADEIRRRMFVFEDILKLDDRSIQLVLREVDTRDLALALKGASDELKEKIFKNMSKRAAALLKDELEYMGPVRLKDVEEAQQKIINIIRRLEEAGEIVIARGGGEELIM
MGSDKIHHHHHHMPEKLDTVLGYLKEFPDYYKYVTKKTYTVNEKIIFEDEKAKSIFFIVEGYAAVELEDNLRKTNYISIFVLPYNVLGIDAFSSYPKKKHSITVMSEHLMLYKIDADFLLNILSIKPDVNDFLLTSIADVFARHYALLGMIAKTPKERIYMALENLAVEMGTEDEERNEIVLPNFINQSVLARYCRTTQPNISNLLTELVEEEFLVNKKSPYRIDKDSLDI
MGSDKIHHHHHHMPEPELMDDPLQARAYAEADFSCGDEALIQRLQEYLISLCKIPSPGSMIVDLGCGPGNICERLQRLWPEVMVLGIDGAQAMLDHALQRQKAMAAELKRLTYRCSNLSSLVNQCVDLKCSAALVVSNSLLHHLHDPNLLWQVTKYLAAPGAFVFHRDLRRPLSTKHAIALQQKHMQEAPSILIRDYLASLHAAFTLEEVQSQLVHAGLDHLHVIEVEDRYLDVFGTI
MGSDKIHHHHHHMPFLLSGHLSDQSCKAGTLPYKIRIVLILFLCPHMCLTNDEGSAVPATDLAAHQIHILYTDHHGWLYNWLRHKLGNACDAADIAQDTFMRILTRQQPVHLNEPRAYLSTIAHGLVIDHWRRRELERAWLETLASLPEPEAPAPETRLIFLEALIEIDRLLDSLKPRVRTTFLLAQLDGLTCPQIAERLGVSLSTVERYITKALRSCYMLRFEP
MGSDKIHHHHHHMPIDLREFYQASDPSRTLFVNNSSDGKYYIDFSSVRGGDILGKLKQKITFFKPNEPTCTLFTGHIGCGKSTELLRLQAELEKLGFHVVYFESSDDLEMTDVDIADVLLAIARRVSQSLDKIILESPNKFNELLQGAWKVLNSEVTGVKVKVPNVGDFGVTSEKEKLSLSVGIGEITAKMKNDPTLREKLNQYLAPQKTKLLEAINQELLEPAIAKLKQQGKNGLVVIVDNLDRIDNRAKPWGRPQQEYLFVDQGEFLTKLNCHLIYTMPLSLKFSNDYGMLTQRFPEDPKVLPMVPVHWSDGSLHAQGMALMQQMVLARAFPDMTPEERLNKVTEIFDSAASLERLCQMSGGHVRDVLRLLNTWIMEEMSLPLTRDTLEQVIRSRQNEIMLPISEDEWQLLRHVKEKKKVSDDHGYQKLIRSRFVFEYRDCGESWFDVNPVLAEAKELQ
MGSDKIHHHHHHMPIYVYWGEDDFAIAKAVTTLRDRVLDPLWTSFNYTSFPPEDSEAPIQALNQVMTPVFGAGGRLVWLMNTNLLQNCPENVLAELTRTLSVIPENSFLLLTCRNKPDERLKSTKLLKQSATEFREFPLIPPWKTELLIQAVNQAAQTVGVKLTPKSAELLAEAVGNDTRLLYNEMEKLRLYAEDNNRPIEENTVTRLVRNTTQNSLQLAAAIRVGDTAKALTILADLINAAEPELRIIATLIGQFRTWLWVKLMVESGERNPQAIAQAAEIGNPKRIYFLQQEVQSLSLRQLISCLPLLLELEVTVKQGRAEISILQIKIIELCQLCQRI
MGSDKIHHHHHHMPKSKSQKNKLRPRDSKGRFTPLAKAKRTVVSRSRSRSRSASRGARQSRSVGRPMSRRNSVRSISTHTAKSPSLVLVISGSPSPRRRRPSTRRSSSRRSVVRSVSRGSKSRRSSSRGSVYGRTGRSRSSKRSRSRSRPRTRSGSRSSSRSRSGSRRSSRRRSRRRSSSKARGRRASTAKKTPAKRRSRSRSQQKVKRSMSRKG
MGSDKIHHHHHHMPLCPSCEMKFNSWEDLAKHMDLIANTNSDKSHVMWLNRNISMKRMEVNELANALERFFSTPNSLSMWIRTRFIERFYGDNPHPFIVAMQNPTKGVLLGYVIEHQHFLKNWVKVLSSIVFKTDKDDVLQYELENISVEFIGYNGRPAHYELLLRMGEALGMPREKILSTQPLPSTQSAIKTWRKIAESKTWLETMASMHSLELVADRSLVKYGAKLPYFNPEILSSDEYPQAVKDFLREGYEADVSHAGEALEMVEKYTEEMEMKEQVQITVLKSFDAFSKYLLARLERGFEIEPSLLKRVIK
MGSDKIHHHHHHMPNIEKYEIFLDFNGNEYEGVEKIYLNSEEEKLELDSVNLEIRSVKSDGKDTKFELKGEKLVIYGKIERELEIKFKGKASRDSILGIYVAPYDGKGMITTQFEAVYARRFIPCFDHPAMKARFKLSVRVQKGLKVISNMPVERIEEDVDGKVIYRFQETPKMSTYLLYLGIDEFEEISDNSKQPTVILATVPGKSKRGLFAINVARKVIEFYEKYFEIPYQLPKVHLIQVPEFAAGAMENWGAITFRETALLADDSSSISQKFRVAEVVAHELAHQWFGNLVTLKWWDDLWLNESFATFMSYKSIKHLFPQWDSEGHLIYDESIGALEDDSLSTTHPIEAHVKDPHEIEQMFDNISYGKGASILKMIEAYVGEENFRRGVVNYLNSFKFGNAEGKDLWNSISNAAGQSIGEIMADWITKPGYPVIFVNAYGNSIRFSQKRFTLLDSGLNEVYKVPITYEINDKFGTLLLDKESAEIRLDEGLKSIKVNINRTGFYRVLYDSLNLAFSSKLNAYEELGLVNDYWNFLLADLIDAKTYFGVIGRFVYTSNSFVSREITSQLLTLYYLFKKNYGKDFLVNQVKIFRKANDDLGKLAYSTVISALARMDEEFALGLSTLFDQYENIDSNIKEAVAIAYAVTNNDFNTLLEKYKRYTIDEEKNRILSAISSLRDPSIVVKVFSLIFERNIKAQDTRFVISSLLHNPHIREEVCSYLMNNFEEVKKFVNTVYGGPWGLGSIVRSMSFCGVDKPKDIIDFLEKVKFKEIERPIKESEERIKVYSRLKQNLP
MGSDKIHHHHHHMPNTIHQDEGRPIVNSNDHDSPAESRASGVLNLTHLRTLVAVVQEGHLTRAAERLRISQPAASHHLRSLEQQFGLPLFTRTPQGVVPTAAGLQLSEQAARLLASSLELLSTASELRGSASGRIAIGTIEDPSVHAALPSLIKWFHEHYPLIELSIESRNSSSIRQGILTGEINAGFYVSCTNEANLREYEIGQRELVVVAPQSWRERVATATWPELAKLPWVMTTTGSAHSEITAQLFRSHNITIRPALEVNTERLLRAMVSQGVGLGFTRREFAEAEQARGAFFIVPISVHRTTMHFAYARSAETDPLIQILSRGLATVLPVAERLIPSTAKPAEK
MGSDKIHHHHHHMPPAIAPRFIYCRVCDACGFAARRSRFSGHAASGHRAAASAFLRPRMNVTTSDDCIGVLPDHPWAKHFIVLGYRDGAFSTIPNNFFRNWLDEEAQVGTFHIGRCSGLGVGSIAKYDQGLQKLVIGKNVAGGMRLRFLLNGQHEMRTISTSLFSIYGNGLENAPMPQYPDTVIHNDVWIGDEALFLGGSQIESGCVIGARAVIPPNFRTEAYGIYAGSPARLVRFRFTEKVREKLLQLAWWDMPLDWIKRNNHAFLVDLTANEGRALDTLAALQESKDNATGEAGRQTAAATPV
MGSDKIHHHHHHMPQDRPTAAQLWSGEISFFSLDTDLIQSAGYSFDAGVLNQLPQVFPKTMQLLLTEVTAREIVSHLMKSVTQAMGEFRKGSDTLKRSVGIDMDQIDKLFEALSVVSSAEAVFRERVDSYAERCRGEVLPIGGGDMMPRIFERYFAGLPPFGARKDKKAEFPDAMSLLLLEDYARDHGTRGVVASRDEGWSEFAGKSEYLYCVKSLDALIALFEATGEHAKTLADRIASAVEDENSFVRAALLDGFRTHIHESSWNVENVYSGVVPRVEAATCEADVISHVLQSDRTKVWNLEEDKSVWVVELTASLTVEVQIDVTFYVWDAIDREEMELDTQTVRRKTNIEVKAFLTVGGAETEVDPAKWDVGVEIAPGQYEIDVGEVEPEYSGD
MGSDKIHHHHHHMPRIKDGFKGERAIVLPAFLIEELKQDPLGSELYITDIGYYPHAYFHYRKRDTEEVTEFILIYCMEGEGWFELDKHQYAVTANQFFILPEHQAHAYGSNEENPWTIYWIHFNGTKAAFFSAGFDRPKSITPQEDSRIKERLVLFEEIYSSISFGYSKNYMLYATTSLFHFLGSMKFIGEYRDCGSMRNSYRNKDVVQIAIHFMQENLSKTIRLADIAAEVNLSVSYFSNLFEEKTGSSPLRYLTYLRIQEACHYLDFTNLKINQISPLVGYEDSLYFSRLFTKTMGVPPSAYKEKKKG
MGSDKIHHHHHHMPRKTATATKLFVLDTNVLMHDPTSLFRFEEHDVYVPIATLEELDQHKKGMTEVSRNARQASRFLDEIVRKLDSIDEGVPLAPHSHNAATGRLFLQTQAISGDIPVNLPTSKVDNQILGVVLFLSRHHTKRQVILVSKDINMRIKARALGLPAEDYFNDKVLEDTDLLYPGLRELPADFWDTHGKGMESWQANGHTYYRVKGPLVASLLPNEFVFQEGASPLYAKVLKVEGKHAEMVTIRDFGHHKNNVWGITARNREQNFALNVLMDPEIDFVSLLGQAGTGKTLLTLAAGLAQVLDKKIYSEIIMTRVTVPVGEDIGFLPGTEEEKMTPWMGALEDNLDVLNKSDDEGGDWGRAATQDLIRSRIKVKSLNFMRGRTFLNKFLIIDEAQNLTPKQMKTLITRAGPGTKVVCLGNIAQIDTPYLTEGSSGLTYVVDHFKGWPHNGHVTLQRGERSRLADYAAEVL
MGSDKIHHHHHHMPSLKLSLTGLQIIKQARSEKGWTIDNPCWLEQASQVLEPGRNWENAEVFAAGVSLATWKRFLKGDAIDASVFKAFCQVLGLNWQDLVERPPNSFIIGTTQIPNIPLFFGRRYELTTLSQAIEQGTRLIAITGIGGMGKTALATKLVESRSSHFSQTLWFSFHHNPPAKDKIPTLVPQTLMVFDGWDGILGGNRGGQYRPEYEPYADFLRTVVQTTHTSCVIITSREQPEGLNILGAGGAVIFPLGGLMEGAIELLQHHQLTFNAQQWITLVNQYGGNPLFLNMAANFIHELFAGDVGEFLASGTLVAGEFAPLVTQWLKQISTLEQILIKSLATKVQGFTRQEILLHLASRAANGDILAALLSLKRRGLIETMKDGELERFYLQPVILKCVQRLF
MGSDKIHHHHHHMPSTNPFLTLPYEPAFASLGSEFSDPVEAATFPAHQLRFRNDRLLPILGLDPATVTDEHFIEAFGRFQGRSPLLAMRYHGYQFGIYNPDLGDGRGFLYGQVRGRNGWLYDFGTKGSGRTPYSRGGDGKLTLKGGVREVLASEFLQRLGVRTGRCLSLIETGEELWRGDEPSPTRSSVMVRFNRTHIRFGTFERLHYFKRADLVRQLLDHVIATYYSHLLGDPEADAKFYAELTERTADLAAQWMAAGFCHAVLNTDNLSIVGESFDYGPWAFLDRFDPKFTAAYFDHSGRYRYENQPGICQLNLELLQVPLGMVMSAADLEAGIAGFGDRYQATYSRLMLRRLGFEADQLHSAIADDLIITTLQLLLRAPIGYNEFFARLRAQFQPSWRSDLSAILPDWITTDLEALPEAQWQGWRDRYHQLLTHLPESQLPLIQQQLAQANPEIAPIRPVVESVWDPIAIDDNWEPLEALLNRWRHDGDGAADGVVVPNAN
MGSDKIHHHHHHMPTLPMPSFLSSYWESSFNLKQHIQEFLQLDAEILETKLEFGQQQMAELGHKDFDWEQATAFYRDKVGEVYLFELGAWHLASHDYIGDTLRLIADHAHGCVLDFGGGIGTHAIGAALCPHVEQVVYCDINPINFDFVKYRAEKLGLSEKIIFCVEIPPQKTFDTIMSFDVLEHLPDPSQQLLEFHQILADEGKMILNWHFFKGFNQEHPFHLDDPQAIDTFFKTIQSNCLEVFHPYHITARCYRKWN
